According to paper PMC11811267 (Journal of Separation Science, 2025):

Assays:
[1] = Freeze-thaw stability in artificial plasma after storage at −80°C; type: in vitro ADME; settings: stored at −80°C, triplicate, 2D-LC-MS/MS; for 24 h, change (%): cycle at 24 h; for 48 h, change (%): cycle at 48 h; for 72 h, change (%): cycle at 72 h
Description: (§3) The stability tests of all insulins were performed at two concentration levels (193 and 7752 pg/mL). One set of tests was performed with artificial plasma and the other set with artificial plasma containing 1% PIC. Each concentration level was tested in triplicate. These QC samples were quantified using an artificial plasma calibration curve without PIC, and the obtained concentrations were compared with the nominal concentrations of the low quality control (LQC) and high quality control (HQC), which were set to 100%. To evaluate the stability of insulins in artificial plasma containing 1% PIC, we considered the concentration measured at time zero as the baseline (100%). All subsequent changes in concentration were calculated relative to this initial measurement.
(§4) Short‐term stability, long‐term stability, and freeze‐thaw stability were evaluated in this study. LQC and HQC samples were stored at room temperature and in a refrigerator for 3, 6, and 24 h to assess short‐term (bench‐top) stability and at 4°C in the autosampler for 24 h to assess re‐injection stability.

[2] = Long-term stability in artificial plasma at −80°C; type: in vitro ADME; settings: triplicate, 2D-LC-MS/MS
Description: as §3, §4

[3] = Autosampler (re-injection) stability at 4°C for 24 h; type: in vitro ADME; settings: autosampler (AS) 4°C, triplicate, 2D-LC-MS/MS
Description: as §3, §4

[4] = Short-term (bench-top) stability at room temperature in artificial plasma with and without 1% PIC; settings: triplicate, 2D-LC-MS/MS
Description: (§1) A mixed standard solution containing all insulins at a concentration of 10,000 ng/mL was obtained by diluting the stock solutions with artificial plasma. This stock solution was further diluted with artificial plasma to produce a series of calibration standards at the following concentrations: 50, 100, 150, 250, 500, 1,000, 1500, 2500, 5000, 10 000, and 15 000 pg/mL. Quality control (QC) samples were prepared in artificial plasma at 200, 800, 3000, and 9000 pg/mL and analyzed prior to real human plasma samples. For method validation, four concentration levels were prepared in artificial plasma at 50, 125, 6000, and 13 000 pg/mL. Two concentration levels (193 and 7752 pg/mL) were evaluated for stability testing.
(§2) Each concentration level was tested in triplicate.

[5] = Insulin concentrations in patient plasma samples (2D-LC-MS/MS); type: in vivo, human
Description: Patient samples were collected in K2EDTA tubes, and centrifuged, and 250 µL aliquots were either analyzed immediately or stored at −80°C for analysis the following day. A previously published method [12] was used for sample preparation, including protein precipitation, conversion of analytes to anions, and micro SPE (µSPE) using Oasis MAX multimodal sorbent (Waters) in a 96‐well design. […] QuanRecovery with MaxPeak 700 µL plates (Waters) were used for elution after SPE and subsequent injection for 2D‐LC‐MS/MS analysis.
To assess the clinical applicability of the proposed method, 30 patient samples (16 males and 15 females) were analyzed. Plasma samples (collected in K2EDTA tubes) were supplied to the Department of Forensic Medicine.

[6] = Short-term stability in refrigerator (4°C) in artificial plasma with and without 1% PIC; settings: triplicate, 2D-LC-MS/MS
Description: as §1, §2

[7] = Adsorption test in three types of glass vials; type: physicochemical; settings: 15 ng/mL in 6.7% acetic acid in water:methanol (60:40, v/v), UHPLC-MS/MS, Figure S10
Description: We prepared stock solutions of all insulins, which were then transferred to three different types of glass vials and analyzed by LC‐MS/MS. For the adsorption test, a mixture of all insulins at a concentration of 15 ng/mL was prepared in a solvent containing 6.7% acetic acid in a water:methanol mixture (60:40, v/v). The mixture was then transferred to three types of vials and analyzed by UHPLC‐MS/MS. This experiment was performed prior to the optimization of the chromatographic method.

[8] = Long-term stability in artificial plasma at −20°C; type: in vitro ADME; settings: triplicate, 2D-LC-MS/MS
Description: as §3, §4

[9] = artificial plasma (BZ273) with 1% PIC, 7752 pg/mL, % of concentration at time zero
[10] = artificial plasma (BZ273) without PIC, 7752 pg/mL, % of nominal concentration
[11] = artificial plasma (BZ273) with 1% PIC, 193 pg/mL, % of concentration at time zero
[12] = artificial plasma (BZ273) with 1% PIC, 193 pg/mL, % of concentration at time zero (=100%)
[13] = artificial plasma (BZ273) with 1% PIC, 7752 pg/mL, % of concentration at time zero (=100%)
[14] = artificial plasma (BZ273) without PIC, 193 pg/mL, % of nominal concentration (=100%)
[15] = artificial plasma (BZ273) without PIC, 7752 pg/mL, % of nominal concentration (=100%)

Substance: Human insulin
- 24 h, change (%) [1, 9]: 111.6%
- 24 h, change (%) [1, 10]: 100.2%
- 48 h, change (%) [1, 11]: 116.6%
- 48 h, change (%) [1, 10]: 94.6%
- 72 h, change (%) [1, 9]: 92.9%
- 72 h, change (%) [1, 10]: 87.1%
- 1 week, change (%) ([2]; 1 week, artificial plasma (BZ273) without PIC, 7752 pg/mL, % of nominal concentration): 100.1%
- 2 weeks, change (%) [2, 11]: 105.8%
- 2 weeks, change (%) [2, 9]: 111.9%
- 2 weeks, change (%) [2, 10]: 106.0%
- 24 h AS, change (%) ([3]; extracted samples from artificial plasma with 1% PIC, 193 pg/mL, % of concentration at time zero (=100%)): 105.9%
- 24 h AS, change (%) ([3]; extracted samples from artificial plasma without PIC, 7752 pg/mL, % of nominal concentration (=100%)): 100.5%
- 0 h, change (%) [4, 12]: 100.0%
- 24 h, change (%) [4, 12]: 72.1%
- 0 h, change (%) [4, 13]: 100.0%
- 6 h, change (%) [4, 13]: 86.4%
- 24 h, change (%) [4, 13]: 67.4%
- 0 h, change (%) [4, 14]: 100.1%
- 0 h, change (%) [4, 15]: 99.1%
- 6 h, change (%) [4, 15]: 95.1%
- Concentration range (pg/mL) in patient samples ([5]; human plasma (K2EDTA), 30 patient samples from the Department of Forensic Medicine (unexplained deaths), range over quantified samples): 219.1 to 6065.2 pg/mL
- Concentration in a real patient sample ([5]; human plasma, single patient sample of Figure 2): LLOQ
- 3 h 4°C, change (%) [6, 12]: 100.4%
- 24 h 4°C, change (%) ([6]; artificial plasma (BZ273) with 1% PIC, 193 pg/mL, 24 h, % of concentration at time zero (=100%)): 87.9%
- 6 h 4°C, change (%) [6, 13]: 98.6%
- 6 h 4°C, change (%) [6, 14]: 105.6%
- 3 h 4°C, change (%) [6, 15]: 90.2%
- Difference in concentration between vial types (adsorption to container surfaces) [7]: up to 50%
- 1 week, change (%) [8, 11]: 70.1%
- 1 week, change (%) [8, 9]: 54.9%
- 2 weeks, change (%) [8, 9]: 61.8%
- 2 weeks, change (%) ([8]; artificial plasma (BZ273) without PIC, 193 pg/mL, % of nominal concentration): 106.3%
- 3 weeks, change (%) ([8]; 3 weeks, artificial plasma (BZ273) with 1% PIC, 7752 pg/mL, % of concentration at time zero): 25.9%
